Experimental data: US20220153862A1 (CSPC MEGALITH BIOPHARMACEUTICAL, published 2022)

Molecular target: T1, human Trophoblast cell surface antigen 2 (TROP2) (human, UniProt P09758 27-274, limits assumed)
T1 construct: Analyte in the SPR experiments and immunogen; also called human TROP2
T1 sequence: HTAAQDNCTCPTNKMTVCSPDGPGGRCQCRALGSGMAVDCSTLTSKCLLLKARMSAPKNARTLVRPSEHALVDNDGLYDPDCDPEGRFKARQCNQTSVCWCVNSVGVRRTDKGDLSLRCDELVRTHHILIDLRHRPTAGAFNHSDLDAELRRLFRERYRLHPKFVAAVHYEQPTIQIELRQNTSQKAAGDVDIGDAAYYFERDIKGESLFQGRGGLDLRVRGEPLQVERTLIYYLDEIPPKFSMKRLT
Assay: SPR affinity ranking, human TROP2

B1: HC5/LC3 (antibody, human IgG1, kappa, V domains shown)
VH: EVQLVQSGAEVKKPGESLKISCKGSGYTFTDYSINWVRQMPGKGLEWMGVISTYYGDASYNQKFKGQVTISADKSISTAYLQWSSLKASDTAMYYCARYGDGYNQFDYWGQGTLVTVSS
VL: DIVMTQSPLSLPVTPGEPASISCRVSESVDSYGNNFMHWYLQKPGQSPQLLIYRASNLESGVPDRFSGSGSGTDFTLKISRVEAEDVGVYYCQQSYEDPYTFGGGTKVEIKR
notes: Humanized anti-TROP2 antibody
  Kd: 182 pM
  koff: 0.000266 s⁻¹
  kon: 1.46e+06 M⁻¹ s⁻¹

B2: HC5/LC2 (antibody, human IgG1, kappa, V domains shown)
VH: EVQLVQSGAEVKKPGESLKISCKGSGYTFTDYSINWVRQMPGKGLEWMGVISTYYGDASYNQKFKGQVTISADKSISTAYLQWSSLKASDTAMYYCARYGDGYNQFDYWGQGTLVTVSS
VL: DVVMTQSPLSLPVTLGQPASISCRVSESVDSYGNNFMHWFQQRPGQSPRRLIYRASNLESGVPDRFSGSGSGTDFTLKISRVEAEDVGVYYCQQSYEDPYTFGGGTKVEIKR
notes: Humanized anti-TROP2 antibody
  Kd: 1540 pM
  koff: 0.000402 s⁻¹
  kon: 261000 M⁻¹ s⁻¹

B3: HC2/LC5 (antibody, human IgG1, kappa, V domains shown)
VH: QVQLVQSGAEVKKPGASVKVSCKASGYTFTDYSINWVRQAPGQGLEWMGVISTYYGDASYNQKFKGRVTMTRDTSTSTVYMELSSLRSEDTAVYYCARYGDGYNQFDYWGQGTLVTVSS
VL: DIQMTQSPSSLSASVGDRVTITCRVSESVDSYGNNFMHWYQQKPGKAPKLLIYRASNLESGVPSRFSGSGSGTDFTFTISSLQPEDIATYYCQQSYEDPYTFGGGTKLEIKR
notes: Humanized anti-TROP2 antibody
  Kd: 52 pM
  koff: 7.38e-05 s⁻¹
  kon: 1.42e+06 M⁻¹ s⁻¹

B4: HC2/LC3 (antibody, human IgG1, kappa, V domains shown)
VH: QVQLVQSGAEVKKPGASVKVSCKASGYTFTDYSINWVRQAPGQGLEWMGVISTYYGDASYNQKFKGRVTMTRDTSTSTVYMELSSLRSEDTAVYYCARYGDGYNQFDYWGQGTLVTVSS
VL: DIVMTQSPLSLPVTPGEPASISCRVSESVDSYGNNFMHWYLQKPGQSPQLLIYRASNLESGVPDRFSGSGSGTDFTLKISRVEAEDVGVYYCQQSYEDPYTFGGGTKVEIKR
notes: Humanized anti-TROP2 antibody
  Kd: 104 pM
  koff: 0.000141 s⁻¹
  kon: 1.36e+06 M⁻¹ s⁻¹

B5: HC4/LC2 (antibody, human IgG1, kappa, V domains shown)
VH: QVQLVQSGAEVKKPGSSVKVSCKASGYTFTDYSINWVRQAPGQGLEWMGVISTYYGDASYNQKFKGRVTITADESTSTAYMELSSLRSEDTAVYYCARYGDGYNQFDYWGQGTLVTVSS
VL: DVVMTQSPLSLPVTLGQPASISCRVSESVDSYGNNFMHWFQQRPGQSPRRLIYRASNLESGVPDRFSGSGSGTDFTLKISRVEAEDVGVYYCQQSYEDPYTFGGGTKVEIKR
notes: Humanized anti-TROP2 antibody
  Kd: 5340 pM
  koff: 0.000984 s⁻¹
  kon: 184000 M⁻¹ s⁻¹

B6: HC5/LC5 (antibody, human IgG1, kappa, V domains shown)
VH: EVQLVQSGAEVKKPGESLKISCKGSGYTFTDYSINWVRQMPGKGLEWMGVISTYYGDASYNQKFKGQVTISADKSISTAYLQWSSLKASDTAMYYCARYGDGYNQFDYWGQGTLVTVSS
VL: DIQMTQSPSSLSASVGDRVTITCRVSESVDSYGNNFMHWYQQKPGKAPKLLIYRASNLESGVPSRFSGSGSGTDFTFTISSLQPEDIATYYCQQSYEDPYTFGGGTKLEIKR
notes: Humanized anti-TROP2 antibody
  Kd: 238 pM
  koff: 0.000338 s⁻¹
  kon: 1.42e+06 M⁻¹ s⁻¹

B7: HC2/LC4 (antibody, human IgG1, kappa, V domains shown)
VH: QVQLVQSGAEVKKPGASVKVSCKASGYTFTDYSINWVRQAPGQGLEWMGVISTYYGDASYNQKFKGRVTMTRDTSTSTVYMELSSLRSEDTAVYYCARYGDGYNQFDYWGQGTLVTVSS
VL: EIVLTQSPATLSLSPGERATLSCRVSESVDSYGNNFMHWYQQKPGQAPRLLIYRASNLESGIPARFSGSGSGTDFTLTISSLEPEDFAVYYCQQSYEDPYTFGGGTKVEIKR
notes: Humanized anti-TROP2 antibody
  Kd: 95.7 pM
  koff: 0.00014 s⁻¹
  kon: 1.46e+06 M⁻¹ s⁻¹

B8: HC2/LC1 (antibody, human IgG1, kappa, V domains shown)
VH: QVQLVQSGAEVKKPGASVKVSCKASGYTFTDYSINWVRQAPGQGLEWMGVISTYYGDASYNQKFKGRVTMTRDTSTSTVYMELSSLRSEDTAVYYCARYGDGYNQFDYWGQGTLVTVSS
VL: DIVMTQSPDSLAVSLGERATINCRVSESVDSYGNNFMHWYQQKPGQPPKLLIYRASNLESGVPDRFSGSGSGTDFTLTISSLQAEDVAVYYCQQSYEDPYTFGQGTKLEIKR
notes: Humanized anti-TROP2 antibody
  Kd: 37.5 pM
  koff: 5.78e-05 s⁻¹
  kon: 1.54e+06 M⁻¹ s⁻¹

B9: HC3/LC3 (antibody, human IgG1, kappa, V domains shown)
VH: QVQLVQSGAEVKKPGASVKVSCKASGYTFTDYSINWVRQAPGQRLEWMGVISTYYGDASYNQKFKGRVTITRDTSASTAYMELSSLRSEDTAVYYCARYGDGYNQFDYWGQGTLVTVSS
VL: DIVMTQSPLSLPVTPGEPASISCRVSESVDSYGNNFMHWYLQKPGQSPQLLIYRASNLESGVPDRFSGSGSGTDFTLKISRVEAEDVGVYYCQQSYEDPYTFGGGTKVEIKR
notes: Humanized anti-TROP2 antibody
  Kd: 107 pM
  koff: 0.000159 s⁻¹
  kon: 1.49e+06 M⁻¹ s⁻¹

B10: HC2/LC2 (antibody, human IgG1, kappa, V domains shown)
VH: QVQLVQSGAEVKKPGASVKVSCKASGYTFTDYSINWVRQAPGQGLEWMGVISTYYGDASYNQKFKGRVTMTRDTSTSTVYMELSSLRSEDTAVYYCARYGDGYNQFDYWGQGTLVTVSS
VL: DVVMTQSPLSLPVTLGQPASISCRVSESVDSYGNNFMHWFQQRPGQSPRRLIYRASNLESGVPDRFSGSGSGTDFTLKISRVEAEDVGVYYCQQSYEDPYTFGGGTKVEIKR
notes: Humanized anti-TROP2 antibody
  Kd: 865000 pM
  koff: 0.0251 s⁻¹
  kon: 24900 M⁻¹ s⁻¹

B11: HC4/LC3 (antibody, human IgG1, kappa, V domains shown)
VH: QVQLVQSGAEVKKPGSSVKVSCKASGYTFTDYSINWVRQAPGQGLEWMGVISTYYGDASYNQKFKGRVTITADESTSTAYMELSSLRSEDTAVYYCARYGDGYNQFDYWGQGTLVTVSS
VL: DIVMTQSPLSLPVTPGEPASISCRVSESVDSYGNNFMHWYLQKPGQSPQLLIYRASNLESGVPDRFSGSGSGTDFTLKISRVEAEDVGVYYCQQSYEDPYTFGGGTKVEIKR
notes: Humanized anti-TROP2 antibody
  Kd: 91.6 pM
  koff: 0.000178 s⁻¹
  kon: 1.95e+06 M⁻¹ s⁻¹

B12: HC3/LC2 (antibody, human IgG1, kappa, V domains shown)
VH: QVQLVQSGAEVKKPGASVKVSCKASGYTFTDYSINWVRQAPGQRLEWMGVISTYYGDASYNQKFKGRVTITRDTSASTAYMELSSLRSEDTAVYYCARYGDGYNQFDYWGQGTLVTVSS
VL: DVVMTQSPLSLPVTLGQPASISCRVSESVDSYGNNFMHWFQQRPGQSPRRLIYRASNLESGVPDRFSGSGSGTDFTLKISRVEAEDVGVYYCQQSYEDPYTFGGGTKVEIKR
notes: Humanized anti-TROP2 antibody
  Kd: 10400 pM
  koff: 0.00177 s⁻¹
  kon: 169000 M⁻¹ s⁻¹

B13: HC3/LC4 (antibody, human IgG1, kappa, V domains shown)
VH: QVQLVQSGAEVKKPGASVKVSCKASGYTFTDYSINWVRQAPGQRLEWMGVISTYYGDASYNQKFKGRVTITRDTSASTAYMELSSLRSEDTAVYYCARYGDGYNQFDYWGQGTLVTVSS
VL: EIVLTQSPATLSLSPGERATLSCRVSESVDSYGNNFMHWYQQKPGQAPRLLIYRASNLESGIPARFSGSGSGTDFTLTISSLEPEDFAVYYCQQSYEDPYTFGGGTKVEIKR
notes: Humanized anti-TROP2 antibody
  Kd: 140 pM
  koff: 0.000192 s⁻¹
  kon: 1.37e+06 M⁻¹ s⁻¹

B14: HC4/LC1 (antibody, human IgG1, kappa, V domains shown)
VH: QVQLVQSGAEVKKPGSSVKVSCKASGYTFTDYSINWVRQAPGQGLEWMGVISTYYGDASYNQKFKGRVTITADESTSTAYMELSSLRSEDTAVYYCARYGDGYNQFDYWGQGTLVTVSS
VL: DIVMTQSPDSLAVSLGERATINCRVSESVDSYGNNFMHWYQQKPGQPPKLLIYRASNLESGVPDRFSGSGSGTDFTLTISSLQAEDVAVYYCQQSYEDPYTFGQGTKLEIKR
notes: Humanized anti-TROP2 antibody
  Kd: 45.7 pM
  koff: 7.74e-05 s⁻¹
  kon: 1.69e+06 M⁻¹ s⁻¹

B15: HC4/LC4 (antibody, human IgG1, kappa, V domains shown)
VH: QVQLVQSGAEVKKPGSSVKVSCKASGYTFTDYSINWVRQAPGQGLEWMGVISTYYGDASYNQKFKGRVTITADESTSTAYMELSSLRSEDTAVYYCARYGDGYNQFDYWGQGTLVTVSS
VL: EIVLTQSPATLSLSPGERATLSCRVSESVDSYGNNFMHWYQQKPGQAPRLLIYRASNLESGIPARFSGSGSGTDFTLTISSLEPEDFAVYYCQQSYEDPYTFGGGTKVEIKR
notes: Humanized anti-TROP2 antibody
  Kd: 52 pM
  koff: 8.88e-05 s⁻¹
  kon: 1.71e+06 M⁻¹ s⁻¹

B16: HC1/LC4 (antibody, human IgG1, kappa, V domains shown)
VH: QVQLVQSGAEVKKPGASVKVSCKASGYTFTDYSINWVRQAPGQGLEWMGVISTYYGDASYNQKFKGRVTMTTDTSTSTAYMELRSLRSDDTAVYYCARYGDGYNQFDYWGQGTMVTVSS
VL: EIVLTQSPATLSLSPGERATLSCRVSESVDSYGNNFMHWYQQKPGQAPRLLIYRASNLESGIPARFSGSGSGTDFTLTISSLEPEDFAVYYCQQSYEDPYTFGGGTKVEIKR
notes: Humanized anti-TROP2 antibody
  Kd: 91.1 pM
  koff: 0.000126 s⁻¹
  kon: 1.38e+06 M⁻¹ s⁻¹

B17: HC3/LC5 (antibody, human IgG1, kappa, V domains shown)
VH: QVQLVQSGAEVKKPGASVKVSCKASGYTFTDYSINWVRQAPGQRLEWMGVISTYYGDASYNQKFKGRVTITRDTSASTAYMELSSLRSEDTAVYYCARYGDGYNQFDYWGQGTLVTVSS
VL: DIQMTQSPSSLSASVGDRVTITCRVSESVDSYGNNFMHWYQQKPGKAPKLLIYRASNLESGVPSRFSGSGSGTDFTFTISSLQPEDIATYYCQQSYEDPYTFGGGTKLEIKR
notes: Humanized anti-TROP2 antibody
  Kd: 114 pM
  koff: 0.000151 s⁻¹
  kon: 1.32e+06 M⁻¹ s⁻¹

B18: HC1/LC3 (antibody, human IgG1, kappa, V domains shown)
VH: QVQLVQSGAEVKKPGASVKVSCKASGYTFTDYSINWVRQAPGQGLEWMGVISTYYGDASYNQKFKGRVTMTTDTSTSTAYMELRSLRSDDTAVYYCARYGDGYNQFDYWGQGTMVTVSS
VL: DIVMTQSPLSLPVTPGEPASISCRVSESVDSYGNNFMHWYLQKPGQSPQLLIYRASNLESGVPDRFSGSGSGTDFTLKISRVEAEDVGVYYCQQSYEDPYTFGGGTKVEIKR
notes: Humanized anti-TROP2 antibody
  Kd: 121 pM
  koff: 0.000196 s⁻¹
  kon: 1.62e+06 M⁻¹ s⁻¹

B19: HC3/LC1 (antibody, human IgG1, kappa, V domains shown)
VH: QVQLVQSGAEVKKPGASVKVSCKASGYTFTDYSINWVRQAPGQRLEWMGVISTYYGDASYNQKFKGRVTITRDTSASTAYMELSSLRSEDTAVYYCARYGDGYNQFDYWGQGTLVTVSS
VL: DIVMTQSPDSLAVSLGERATINCRVSESVDSYGNNFMHWYQQKPGQPPKLLIYRASNLESGVPDRFSGSGSGTDFTLTISSLQAEDVAVYYCQQSYEDPYTFGQGTKLEIKR
notes: Humanized anti-TROP2 antibody
  Kd: 67 pM
  koff: 0.00011 s⁻¹
  kon: 1.65e+06 M⁻¹ s⁻¹
